Values of other authors as cited in PMC7702019 (ACS chemical biology, 2020).
Bridges are numbered along the chain shown (N, C = ends). Where no end group is shown, it is not given here.

Settings: for amyloidogenicity: under normal conditions, rat and mouse amylin

For “mouse amylin: identical sequence to rat amylin”, the amyloidogenicity is given as “not amyloidogenic under normal conditions”.
For “H18R: H18R substitution of human amylin (literature) (KCNTATCATQRLANFLVRSSNNFGAILSSTNVGSNTY; ends and bridges not checked; cysteine pairing not given here; UniProt P10997 34-70, looked up, variant H18R)”, the “rate of amyloid formation in vitro” value (substitution in human amylin, in vitro) is given as “reduces the rate of amyloid formation”.
In the case of “rat amylin: contains prolines at position 25, 28, and 29 and a H18R replacement relative to human amylin”, the “amyloid formation in vitro” value (in vitro, reference not given) is given as “form amyloid in vitro, but only at very high non-physiological conditions” and the amyloidogenicity is given as “not amyloidogenic under normal conditions”.
For “Pramlintide: triple mutant of human amylin with A25, S28, and S29 replaced by Pro (KCNTATCATQRLANFLVHSSNNFGPILPPTNVGSNTY-NH2; disulfide 2-7; UniProt P10997 34-70, looked up, variant A25P S28P S29P)”, the amyloidogenicity in vitro (pramlintide, reference not given) is given as “not amyloidogenic in vitro, except at high concentrations”.
For “bovine amylin: bovine amylin (CGTATCETQRLANFLAPSSNKLGAIFSPTKMGSNTY; ends and bridges not checked; cysteine pairing not given here; UniProt Q28207 37-72, looked up)”, the “amyloidogenicity relative to human amylin” value (porcine and bovine amylin) is given as “much less amyloidogenic than human amylin”.
